{
  "source": "patent US7056679",
  "about": "(ANTYRA, dated 2006)",
  "binders": {"B1": {"name": "DGI-2-40F-3-C8 (peptide)", "peptide": "YGTAGLFLRRACTMSDPGDPLGRRGYTGWGVLWDEWVTGSAAAGAPVPYPDPLEPRP"}, "B2": {"name": "DGI-2-40F-3-C424 (peptide)", "peptide": "TVKFQGVVQERSRIAGFRYCGDHAVSWGLAGCPALRDKLQAAAGAPVPYPDPLEPRP"}, "B3": {"name": "DGI-2-40F-4-F122 (peptide)", "peptide": "RSQVRVVSRERSTPVLHRIECLLFSGWCVTSGSDEGVVWGAAAGAPVPYPDPLEPRP"}},
  "data": [
    {"biological_target": "T1, DGI-2 polypeptide (UniProt Q15004 1-111, limits assumed)", "T1 construct": "Soluble recombinant protein coated at 500 ng/well; vector tag of pIVEX2.3-MCS not described for this construct; also called KIAA0101", "T1 sequence (looked up)": "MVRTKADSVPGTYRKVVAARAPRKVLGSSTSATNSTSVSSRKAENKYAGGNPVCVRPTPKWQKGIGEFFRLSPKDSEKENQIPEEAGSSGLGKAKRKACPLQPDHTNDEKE", "assay": "phage ELISA", "outline": "(§1)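 Phage from individual clones were bound for 2 h at RT to wells coated with 500 ng DGI-2, LDH (non-specific), anti-E-tag antibody (positive control) or milk (negative control). Bound phage were detected with HRP-anti-M13 and ABTS at A405; positive clones gave ≥2-fold signal over background.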", "units": {"DGI-2 (OD)": "OD", "DGI-2/LDH": "ratio"}, "values": [
      {"binder": "WAASCFWGHVALGCGRNGQGAAAGAPVPYPDPLEPRP", "note": "[DGI-2-20R-3-A11]", "DGI-2 (OD)": 6.2, "DGI-2/LDH": 5.7},
      {"binder": "SRPGWCSRGTAWGFPGCSSSAAAGAPVPYPDPLEPRP", "note": "[DGI-2-20R-3-C4]", "DGI-2 (OD)": 4.5, "DGI-2/LDH": 4.2},
      {"binder": "YTPASILTGFQRGYEGAGNGAAAGAPVPYPDPLEPRP", "note": "[DGI-2-20R-4-G7]", "DGI-2 (OD)": 4.7, "DGI-2/LDH": 3.9},
      {"binder": "LPQSRWLSEAWASWVDGVVDAAAGAPVPYPDPLEPRP", "note": "[DGI-2-20F-4-F9]", "DGI-2 (OD)": 5.6, "DGI-2/LDH": 5.9},
      {"binder": "MGVVLECEGGWSIPGQTCYFAAAGAPVPYPDPLEPRP", "note": "[DGI-2-20R-3-C7]", "DGI-2 (OD)": 5.1, "DGI-2/LDH": 5.1},
      {"binder": "VVRQGCMAFSGLCSGVTESEAAAGAPVPYPDPLEPRP", "note": "[DGI-2-20R-3-C8]", "DGI-2 (OD)": 5.6, "DGI-2/LDH": 5.3},
      {"binder": "GGGRESWGGGWFMGWGSGAGAAAGAPVPYPDPLEPRP", "note": "[DGI-2-20R-3-A6]", "DGI-2 (OD)": 5.8, "DGI-2/LDH": 5.9},
      {"binder": "VLQRSLWKDWVDGVMHGGGSRGVAAAGAPVPYPDPLEPRP", "note": "[DGI-2-20R-3-A7]", "DGI-2 (OD)": 4.8, "DGI-2/LDH": 5.1},
      {"binder": "RPVVCLAGLTLAQFGWVFPGWRGWSAAAGAPVPYPDPLEPRP", "note": "[DGI-2-20C-3-C1039]", "DGI-2 (OD)": 4.7, "DGI-2/LDH": 4.7},
      {"binder": "B1", "DGI-2 (OD)": 5.7, "DGI-2/LDH": 6},
      {"binder": "RERWGTAWNLWTEGVVDVRPAAAGAPVPYPDPLEPRP", "note": "[DGI-2-20F-3-B5]", "DGI-2 (OD)": 6.1, "DGI-2/LDH": 6.6},
      {"binder": "REFFNQASRGAWGYMFREWVEGAAAGAPVPYPDPLEPRP", "note": "[DGI-2-40F-3-A1]", "DGI-2 (OD)": 4.5, "DGI-2/LDH": 5.2},
      {"binder": "MSSTAWTDRILQRGIGLGPVAAAGAPVPYPDPLEPRP", "note": "[DGI-2-20R-4-F1212]", "DGI-2 (OD)": 4, "DGI-2/LDH": 3.3},
      {"binder": "MFQDVACDLWHSVRCLRRDVAAAGAPVPYPDPLEPRP", "note": "[DGI-2-20R-3-B3]", "DGI-2 (OD)": 4.9, "DGI-2/LDH": 4.8},
      {"binder": "VHSQGRMWAIPGLRGGTGASAAAGAPVPYPDPLEPRP", "note": "[DGI-2-20R-3-D7]", "DGI-2 (OD)": 5.2, "DGI-2/LDH": 5.3},
      {"binder": "B2", "DGI-2 (OD)": 5.5, "DGI-2/LDH": 5.2},
      {"binder": "B3", "DGI-2 (OD)": 4.7, "DGI-2/LDH": 5.7}
    ]},
    {"biological_target": "T2, antibody raised against ETAG", "T2 construct": "Coated at 500 ng/well; also called E-tag antibody", "assay": "phage ELISA", "outline": "as §1", "units": {"ETAG (OD)": "OD"}, "values": [
      {"binder": "WAASCFWGHVALGCGRNGQGAAAGAPVPYPDPLEPRP", "note": "[DGI-2-20R-3-A11]", "ETAG (OD)": 14.7},
      {"binder": "SRPGWCSRGTAWGFPGCSSSAAAGAPVPYPDPLEPRP", "note": "[DGI-2-20R-3-C4]", "ETAG (OD)": 19.1},
      {"binder": "YTPASILTGFQRGYEGAGNGAAAGAPVPYPDPLEPRP", "note": "[DGI-2-20R-4-G7]", "ETAG (OD)": 11.6},
      {"binder": "LPQSRWLSEAWASWVDGVVDAAAGAPVPYPDPLEPRP", "note": "[DGI-2-20F-4-F9]", "ETAG (OD)": 19.6},
      {"binder": "MGVVLECEGGWSIPGQTCYFAAAGAPVPYPDPLEPRP", "note": "[DGI-2-20R-3-C7]", "ETAG (OD)": 18},
      {"binder": "VVRQGCMAFSGLCSGVTESEAAAGAPVPYPDPLEPRP", "note": "[DGI-2-20R-3-C8]", "ETAG (OD)": 21.1},
      {"binder": "GGGRESWGGGWFMGWGSGAGAAAGAPVPYPDPLEPRP", "note": "[DGI-2-20R-3-A6]", "ETAG (OD)": 17.7},
      {"binder": "VLQRSLWKDWVDGVMHGGGSRGVAAAGAPVPYPDPLEPRP", "note": "[DGI-2-20R-3-A7]", "ETAG (OD)": 13.9},
      {"binder": "RPVVCLAGLTLAQFGWVFPGWRGWSAAAGAPVPYPDPLEPRP", "note": "[DGI-2-20C-3-C1039]", "ETAG (OD)": 11.8},
      {"binder": "B1", "ETAG (OD)": 13.6},
      {"binder": "RERWGTAWNLWTEGVVDVRPAAAGAPVPYPDPLEPRP", "note": "[DGI-2-20F-3-B5]", "ETAG (OD)": 16.4},
      {"binder": "REFFNQASRGAWGYMFREWVEGAAAGAPVPYPDPLEPRP", "note": "[DGI-2-40F-3-A1]", "ETAG (OD)": 9.9},
      {"binder": "MSSTAWTDRILQRGIGLGPVAAAGAPVPYPDPLEPRP", "note": "[DGI-2-20R-4-F1212]", "ETAG (OD)": 9.8},
      {"binder": "MFQDVACDLWHSVRCLRRDVAAAGAPVPYPDPLEPRP", "note": "[DGI-2-20R-3-B3]", "ETAG (OD)": 16.1},
      {"binder": "VHSQGRMWAIPGLRGGTGASAAAGAPVPYPDPLEPRP", "note": "[DGI-2-20R-3-D7]", "ETAG (OD)": 18.7},
      {"binder": "B2", "ETAG (OD)": 14.8},
      {"binder": "B3", "ETAG (OD)": 8.1}
    ]},
    {"biological_target": "T3, lactate dehydrogenase (LDH)", "T3 construct": "Coated at 500 ng/well as non-specific target; also called LDH polypeptide", "assay": "phage ELISA", "outline": "as §1", "units": {"LDH (OD)": "OD"}, "values": [
      {"binder": "WAASCFWGHVALGCGRNGQGAAAGAPVPYPDPLEPRP", "note": "[DGI-2-20R-3-A11]", "LDH (OD)": 1.1},
      {"binder": "SRPGWCSRGTAWGFPGCSSSAAAGAPVPYPDPLEPRP", "note": "[DGI-2-20R-3-C4]", "LDH (OD)": 1.1},
      {"binder": "YTPASILTGFQRGYEGAGNGAAAGAPVPYPDPLEPRP", "note": "[DGI-2-20R-4-G7]", "LDH (OD)": 1.2},
      {"binder": "LPQSRWLSEAWASWVDGVVDAAAGAPVPYPDPLEPRP", "note": "[DGI-2-20F-4-F9]", "LDH (OD)": 1},
      {"binder": "MGVVLECEGGWSIPGQTCYFAAAGAPVPYPDPLEPRP", "note": "[DGI-2-20R-3-C7]", "LDH (OD)": 1},
      {"binder": "VVRQGCMAFSGLCSGVTESEAAAGAPVPYPDPLEPRP", "note": "[DGI-2-20R-3-C8]", "LDH (OD)": 1.1},
      {"binder": "GGGRESWGGGWFMGWGSGAGAAAGAPVPYPDPLEPRP", "note": "[DGI-2-20R-3-A6]", "LDH (OD)": 1},
      {"binder": "VLQRSLWKDWVDGVMHGGGSRGVAAAGAPVPYPDPLEPRP", "note": "[DGI-2-20R-3-A7]", "LDH (OD)": 0.9},
      {"binder": "RPVVCLAGLTLAQFGWVFPGWRGWSAAAGAPVPYPDPLEPRP", "note": "[DGI-2-20C-3-C1039]", "LDH (OD)": 1},
      {"binder": "B1", "LDH (OD)": 0.9},
      {"binder": "RERWGTAWNLWTEGVVDVRPAAAGAPVPYPDPLEPRP", "note": "[DGI-2-20F-3-B5]", "LDH (OD)": 0.9},
      {"binder": "REFFNQASRGAWGYMFREWVEGAAAGAPVPYPDPLEPRP", "note": "[DGI-2-40F-3-A1]", "LDH (OD)": 0.9},
      {"binder": "MSSTAWTDRILQRGIGLGPVAAAGAPVPYPDPLEPRP", "note": "[DGI-2-20R-4-F1212]", "LDH (OD)": 1.2},
      {"binder": "MFQDVACDLWHSVRCLRRDVAAAGAPVPYPDPLEPRP", "note": "[DGI-2-20R-3-B3]", "LDH (OD)": 1},
      {"binder": "VHSQGRMWAIPGLRGGTGASAAAGAPVPYPDPLEPRP", "note": "[DGI-2-20R-3-D7]", "LDH (OD)": 1},
      {"binder": "B2", "LDH (OD)": 1.1},
      {"binder": "B3", "LDH (OD)": 0.8}
    ]}
  ]
}
